Reference: patent US20160187342, “DNA Aptamer Specifically Binding to EN2 (Engrailed-2) and Use Thereof” (POSTECH ACADEMY-INDUSTRY FOUNDATION, published 2016)

Legend:
EN2 (Engrailed-2) [1] = molecular target: T1, EN2 (Engrailed-2) (UniProt P19622 P19622:1-333); assay: FAM fluorescence of protein-bound aptamer; details: tags: (His)6-tag, pET28a, E. coli BL21(DE3), hairpin
T1 sequence: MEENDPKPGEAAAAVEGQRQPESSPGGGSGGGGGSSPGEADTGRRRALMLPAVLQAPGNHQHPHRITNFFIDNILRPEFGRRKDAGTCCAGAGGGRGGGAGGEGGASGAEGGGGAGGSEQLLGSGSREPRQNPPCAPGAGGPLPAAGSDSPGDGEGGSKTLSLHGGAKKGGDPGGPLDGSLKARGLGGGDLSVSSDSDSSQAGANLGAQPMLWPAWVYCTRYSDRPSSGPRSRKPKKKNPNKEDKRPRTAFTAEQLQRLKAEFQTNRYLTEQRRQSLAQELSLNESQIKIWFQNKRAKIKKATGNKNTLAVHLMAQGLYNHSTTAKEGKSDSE
Protocol: (§1) Then, in order to compare binding strengths between the EN2 protein and each of the DNA aptamers, a dissociation constant (Kd) between the EN2 protein and each of the DNA aptamers was measured. In this case, fluorescein amidite (FAM) was attached to the DNA aptamer as a marker, and an amount of the DNA aptamer bound to the protein was measured according to a fluorescent signal of FAM.

EN2 (Engrailed-2) [2] = molecular target: T1, EN2 (Engrailed-2); assay: FAM fluorescence; second strand printed 3'-5' in Table 1; EMSA, SPR and SYBR Green I displacement also showed binding of TAATTA dsDNA; details: tags: (His)6-tag, pET28a, E. coli BL21(DE3); label: FAM
EN2 (Engrailed-2) [3] = molecular target: T1, EN2 (Engrailed-2); assay: FAM fluorescence of protein-bound aptamer; printed as hDNA5; details: tags: (His)6-tag, pET28a, E. coli BL21(DE3); label: FAM; hairpin, loop 8 bases, stem 10 bp
Protocol: as §1

[4] = molecular target: TATA box binding protein (TBP) (UniProt P20226 P20226:1-339); assay: impedance biosensor on gold, 10 pM protein in artificial urine; details: label: FAM (Kd assay); poly A linker to gold surface (biosensor); hairpin, loop 8 bases, stem 14 bp
Protocol: In order to identify selective binding of the DNA aptamer, a binding specificity with respect to several protein samples was identified. Each protein was mixed in an artificial urine medium to have a concentration of 10 pM, and then it was identified whether binding to the DNA aptamer was performed.

Chain of TATA box binding protein (TBP) (P20226 whole entry, one chain of several): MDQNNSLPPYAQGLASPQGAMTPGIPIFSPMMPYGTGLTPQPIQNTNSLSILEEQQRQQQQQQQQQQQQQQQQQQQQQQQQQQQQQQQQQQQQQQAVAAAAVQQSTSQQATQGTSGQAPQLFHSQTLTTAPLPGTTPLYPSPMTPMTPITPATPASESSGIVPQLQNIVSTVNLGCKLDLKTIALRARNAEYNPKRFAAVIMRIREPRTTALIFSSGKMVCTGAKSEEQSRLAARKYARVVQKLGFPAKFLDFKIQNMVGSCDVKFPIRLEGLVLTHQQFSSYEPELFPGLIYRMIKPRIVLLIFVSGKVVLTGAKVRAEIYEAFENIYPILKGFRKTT

With CGTGTAATTACCTCCAGACCAGGAGAGGTAATTACACG (structured_DNA) [hpDNA4] as the binder, how does the Kd (EN2 (Engrailed-2) [1]; label: FAM, loop 10 bases, stem 14 bp) read?
The Kd was 88.8 nM.

For CGTGTAATTACCTCCAGGGAGAGGTAATTACACG (structured_DNA) [hpDNA2], which Kd (EN2 (Engrailed-2) [1]; label: FAM, loop 6 bases, stem 14 bp) is on record?
Its Kd is 98.8 nM.

B1: dsDNA probe (dsDNA)
DNA 1: CGTGTAATTACCTC
DNA 2: GAGGTAATTACACG
With B1 as the binder, how does the Kd (EN2 (Engrailed-2) [2]) read?
The Kd was 95.2 nM.

Which Kd (EN2 (Engrailed-2) [3]) does the source give for CGTAATTACCCAGAAGGAGGTAATTACG (structured_DNA) [hpDNA5] here?
The Kd was 68.8 nM.

CGTGTAATTACCTCCAGAGAGGTAATTACACG (structured_DNA) [hpDNA1] was tested. Which Kd (EN2 (Engrailed-2) [1]; label: FAM, loop 4 bases, stem 14 bp) did it give?
The Kd was 85.7 nM.

How did the Kd (EN2 (Engrailed-2) [1]; label: FAM (Kd assay), poly A linker to gold surface (biosensor), loop 8 bases, stem 14 bp) turn out when CGTGTAATTACCTCCAGAAGGAGAGGTAATTACACG (structured_DNA) [hpDNA3] was run?
The Kd was 66.3 nM.

Does CGTGTAATTACCTCCAGAAGGAGAGGTAATTACACG (structured_DNA) [hpDNA3] bind [4]?
Result: no binding

Which Kd (EN2 (Engrailed-2) [1]; label: FAM, loop 8 bases, stem 20 bp) does the source give for CGCAGTGTAATTACCTCGACCAGAAGGAGTCGAGGTAATTACACTGCG (structured_DNA) [hpDNA6] here?
Its Kd is 61 nM.
